Experimental data as given in PMC10415143.

Key:
[1] = target: ALPH1ΔN (amino acids 222-734), recombinant (T. brucei); assay: SEC-MALS; 100 µl injected at 5 mg/ml on Superdex 200 Increase 10/300 GL, 15°C, 0.4 ml/min, PBS buffer
[2] = target: Full length ALPH1 (amino acid 1-734), recombinant (T. brucei); assay: as above

Substance	stoichiometry N [1]	stoichiometry N [2]
ALPH1ΔN (amino acids 222-734), recombinant (domain or fragment)	2	–
Full length ALPH1 (amino acid 1-734), recombinant (enzyme)	–	2
